Measurements as given in patent US20190322730A1 (NGM BIOPHARMACEUTICALS, published 2019).

B1: antibody 27A8 (antibody, V domains shown)
VH: QVQLLQPGAEFVKPGASVKLSCKASGYTFTDYWINWVKQRPGQGLEWIGNIYPGSTSANYNEKFKSKATLTIDTSSITAYMQLSSLTSDDSAVYYCARYGYDSWFAYWGQGTLVTVSA
VL: DVVLTQTPLSLPVNIGDQASISCKSTKSLLNSDGFTYLDWFLQKPGQSPHLLIYLVSNRFSGIPDRFSGSGSETDFTLKISRVEAEDLGVYYCFQSNYLPLTFGSGTKLEIK
B2: antibody 62F2 (antibody, V domains shown)
VH: DVQLQESGPDLVKPSQSLSLTCTVTGYSITSGYSLHWIRQFPGNKLEWMGYIHYSGSTNYNPSLKSRISITRDTSKNQFFLKLNSVTSEDTATYHCARAWDYLDYWGQGTTLTVSS
VL: DIQMTQSPASLSASVGETVTITCRASENIYSQLAWYQQKQGKSPQLLVYDAKTLAEGVPSRFSGSGSDTQFSLKIISLQPEDFGRYYCHHHFGILYTFGGGTKLEMK
notes: Mouse hybridoma antibody
B3: antibody 3G8 (antibody, V domains shown)
VH: EIQLQQSGAELVKPGASVKISCMASGYSFTGYNMNWVKQSHGKGLEWIGNINPYYDSTSYNQKFKGKATLTVDKSSSTAYMQLNSLTSEDSAVYYCARENYDFVGFAYWGQGTLVTVSA
VL: QIVLSQSPAILSASPGEKVTMTCRASSSVSYMHWFQQKPGSSPKPWIYVTSNLASGVPPRFSGSGSGTSYSLTISRVEAEDAATYYCQQWSTNPLTFGAGTKLELK
notes: Mouse hybridoma antibody
B4: antibody 28C3 (antibody, V domains shown)
VH: QVQLQQSGPELVKPGASVKISCKASGYAFNSCWMNWVKQRPGKGLEWIGRIYPGDGDTNYNGKFKGKATLTADKSSTTAYMQLSSLTSEDSAVYFCAREGRNYGYEDYWGQGTTLTVSS
VL: DIVLTQSPASLAVSLGQRATISCKASQSVDYDGDSYMNWYQQKPGQPPKLLIYAASDLESGIPARFSGSGSGTDFTLNIHPVEEEDAATYYCQQANEDPRTFGGGTKLEIK
notes: Mouse hybridoma antibody
B5: antibody 63A3 (antibody, V domains shown)
VH: DVQLQESGPGLVKPSQSLSLTCSVTGYSITSGYYWNWIRQFPGNKLEWMGYIRYDGSNNYNPSLKNRISITRDTSKNQVFLKLNSVTPEDTATYYCARHYGYDGGAFDFWGQGTTLTVSS
VL: DIQMTQSPASLSASVGETVTITCRTSENIYNYLVWYQQKQGKSPQLLVYNAKTLEEGVPSRFSGSGSGTQFSLKVNSLQPEDFGSYYCQHHYGTPFTFGSGTKLEIK
notes: Mouse hybridoma antibody
B6: Fab version of Hz38G10 (Fab, V domains shown)
VH: QVQLVQSGAEVKKPGASVKVSCKASGYTFTDFYMDWVRQAPGQRLEWMGYIYPHNGGTTYNQQFTGRVTITVDKSASTAYMELSSLRSEDTAVYYCARRGGFDFDYWGQGTLVTVSS
VL: DIQMTQSPSSLSASVGDRVTITCKASENVDTYVSWYQQKPGKAPKLLIYGASNRYTGVPSRFSGSGSGTDFTFTISSLQPEDIATYHCGQSHSYPLTFGQGTKLEIK

molecular target: T1, human complement component C3 (human, UniProt P01024 23-667; P01024 672-1663); assay: cell-based or functional assay
T1 sequence (P01024 23-667, chain 1 of 2): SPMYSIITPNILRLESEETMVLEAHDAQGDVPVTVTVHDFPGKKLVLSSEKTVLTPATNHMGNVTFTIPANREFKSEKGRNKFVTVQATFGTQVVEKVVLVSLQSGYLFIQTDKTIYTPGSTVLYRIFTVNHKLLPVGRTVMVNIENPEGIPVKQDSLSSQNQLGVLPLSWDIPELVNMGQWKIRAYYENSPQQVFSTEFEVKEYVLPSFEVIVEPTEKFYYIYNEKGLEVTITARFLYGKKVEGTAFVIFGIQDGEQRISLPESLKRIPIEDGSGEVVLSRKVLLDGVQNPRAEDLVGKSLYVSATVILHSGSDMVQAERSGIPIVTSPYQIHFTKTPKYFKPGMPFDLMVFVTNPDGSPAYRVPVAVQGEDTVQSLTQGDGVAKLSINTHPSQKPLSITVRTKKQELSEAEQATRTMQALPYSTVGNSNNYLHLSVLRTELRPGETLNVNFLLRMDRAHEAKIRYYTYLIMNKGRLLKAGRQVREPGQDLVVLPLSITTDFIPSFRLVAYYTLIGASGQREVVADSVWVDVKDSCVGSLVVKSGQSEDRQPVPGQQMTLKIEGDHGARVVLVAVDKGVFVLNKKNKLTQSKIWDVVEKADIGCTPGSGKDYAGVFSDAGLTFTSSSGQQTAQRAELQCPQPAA
T1 sequence (P01024 672-1663, chain 2 of 2): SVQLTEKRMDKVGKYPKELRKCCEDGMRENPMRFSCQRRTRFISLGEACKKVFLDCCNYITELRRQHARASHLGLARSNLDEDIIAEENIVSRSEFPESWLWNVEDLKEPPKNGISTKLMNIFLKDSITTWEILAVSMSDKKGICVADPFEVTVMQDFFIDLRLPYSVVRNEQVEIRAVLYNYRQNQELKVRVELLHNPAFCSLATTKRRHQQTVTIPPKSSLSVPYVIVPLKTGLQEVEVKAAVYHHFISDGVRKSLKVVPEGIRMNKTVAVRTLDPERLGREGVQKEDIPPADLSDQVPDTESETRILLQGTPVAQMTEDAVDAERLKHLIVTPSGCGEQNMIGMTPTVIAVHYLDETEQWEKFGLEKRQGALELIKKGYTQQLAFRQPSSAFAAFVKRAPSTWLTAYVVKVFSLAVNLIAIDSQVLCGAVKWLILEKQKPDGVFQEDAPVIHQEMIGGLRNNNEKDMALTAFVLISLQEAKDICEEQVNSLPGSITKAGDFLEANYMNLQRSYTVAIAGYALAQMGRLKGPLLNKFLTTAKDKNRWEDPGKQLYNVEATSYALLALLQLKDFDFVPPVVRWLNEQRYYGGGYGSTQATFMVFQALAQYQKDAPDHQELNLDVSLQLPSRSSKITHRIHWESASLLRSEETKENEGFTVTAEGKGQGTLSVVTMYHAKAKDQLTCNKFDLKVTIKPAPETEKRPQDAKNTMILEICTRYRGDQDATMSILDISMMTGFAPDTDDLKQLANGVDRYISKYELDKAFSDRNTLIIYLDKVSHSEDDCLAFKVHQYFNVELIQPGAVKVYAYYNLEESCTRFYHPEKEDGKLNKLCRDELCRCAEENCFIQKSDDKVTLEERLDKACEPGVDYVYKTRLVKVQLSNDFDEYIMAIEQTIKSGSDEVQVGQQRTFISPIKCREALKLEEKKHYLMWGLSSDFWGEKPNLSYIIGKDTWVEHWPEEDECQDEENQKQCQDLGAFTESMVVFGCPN

**Q.** For B1, which “Hemolytic Assay IC50, Human AP” value is on record?
**A.** 8.5 nM

**Q.** And the “Hemolytic Assay IC50, Human CP” value?
**A.** 7.6 nM

**Q.** What does the source list for B2?
**A.** Hemolytic Assay IC50, Human AP: 5.7 nM; Hemolytic Assay IC50, Human CP: 5 nM

**Q.** With B3 as the binder, how does the “Hemolytic Assay IC50, Human AP” value read?
**A.** 6.8 nM

**Q.** And the “Hemolytic Assay IC50, Human CP” value?
**A.** 10.4 nM

**Q.** B4 was tested. Which “Hemolytic Assay IC50, Human AP” value did it give?
**A.** 8 nM

**Q.** And the “Hemolytic Assay IC50, Human CP” value?
**A.** 6.5 nM

**Q.** How did the “Hemolytic Assay IC50, Human AP” value turn out when B5 was run?
**A.** 6.5 nM

**Q.** What about the “Hemolytic Assay IC50, Human CP” value of the same binder?
**A.** 4.1 nM

molecular target: cynomolgus monkey complement component C3 (cynomolgus monkey, UniProt P01024 24-1663 (human entry)); assay: cell-based or functional assay
Sequence (P01024 other isoform, or with tags, fused parts or gaps): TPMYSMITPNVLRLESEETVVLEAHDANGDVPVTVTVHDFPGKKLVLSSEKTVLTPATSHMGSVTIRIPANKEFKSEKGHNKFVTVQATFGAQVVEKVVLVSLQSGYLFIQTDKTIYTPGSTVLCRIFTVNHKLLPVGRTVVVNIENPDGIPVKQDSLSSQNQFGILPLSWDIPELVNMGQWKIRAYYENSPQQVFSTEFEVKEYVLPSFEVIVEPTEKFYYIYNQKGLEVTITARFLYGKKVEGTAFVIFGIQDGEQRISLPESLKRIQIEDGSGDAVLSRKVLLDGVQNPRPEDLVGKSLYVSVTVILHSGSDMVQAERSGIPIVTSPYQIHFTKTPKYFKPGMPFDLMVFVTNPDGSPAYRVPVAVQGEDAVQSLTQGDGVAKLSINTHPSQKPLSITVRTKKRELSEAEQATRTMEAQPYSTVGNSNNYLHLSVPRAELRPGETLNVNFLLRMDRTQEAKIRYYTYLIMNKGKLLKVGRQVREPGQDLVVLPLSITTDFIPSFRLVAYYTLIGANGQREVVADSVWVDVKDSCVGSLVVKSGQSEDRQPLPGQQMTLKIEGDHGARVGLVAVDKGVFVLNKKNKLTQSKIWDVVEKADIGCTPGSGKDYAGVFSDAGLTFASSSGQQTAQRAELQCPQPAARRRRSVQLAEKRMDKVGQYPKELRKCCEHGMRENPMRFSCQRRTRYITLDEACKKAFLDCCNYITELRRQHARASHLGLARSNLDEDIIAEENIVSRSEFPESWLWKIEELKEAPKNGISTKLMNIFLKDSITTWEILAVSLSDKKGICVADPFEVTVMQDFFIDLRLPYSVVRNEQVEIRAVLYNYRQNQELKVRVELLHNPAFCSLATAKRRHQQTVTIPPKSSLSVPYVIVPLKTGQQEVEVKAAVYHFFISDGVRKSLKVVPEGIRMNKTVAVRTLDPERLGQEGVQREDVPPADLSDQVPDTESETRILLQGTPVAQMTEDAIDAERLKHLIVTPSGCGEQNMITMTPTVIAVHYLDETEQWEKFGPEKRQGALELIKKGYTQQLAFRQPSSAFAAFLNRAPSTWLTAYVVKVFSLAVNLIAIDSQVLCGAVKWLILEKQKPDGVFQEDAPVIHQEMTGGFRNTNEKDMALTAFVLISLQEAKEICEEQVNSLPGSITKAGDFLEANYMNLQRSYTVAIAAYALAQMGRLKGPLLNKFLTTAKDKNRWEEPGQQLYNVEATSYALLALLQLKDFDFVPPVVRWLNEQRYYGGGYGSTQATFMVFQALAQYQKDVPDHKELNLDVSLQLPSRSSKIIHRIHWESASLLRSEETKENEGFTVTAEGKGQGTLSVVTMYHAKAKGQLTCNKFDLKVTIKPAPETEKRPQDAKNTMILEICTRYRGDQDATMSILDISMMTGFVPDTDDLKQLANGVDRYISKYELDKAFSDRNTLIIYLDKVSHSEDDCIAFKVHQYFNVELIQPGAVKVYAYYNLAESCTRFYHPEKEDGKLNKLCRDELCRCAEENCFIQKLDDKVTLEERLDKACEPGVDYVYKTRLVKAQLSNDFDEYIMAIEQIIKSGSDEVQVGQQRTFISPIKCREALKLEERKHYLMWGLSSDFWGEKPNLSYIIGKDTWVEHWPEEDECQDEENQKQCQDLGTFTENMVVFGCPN

**Q.** With B1 as the binder, how does the “Hemolytic Assay IC50, Cyno AP” value read?
**A.** 9.6 nM

**Q.** With B2 as the binder, how does the “Hemolytic Assay IC50, Cyno AP” value read?
**A.** 8.7 nM

**Q.** What about the “Hemolytic Assay IC50, Cyno CP” value of the same binder?
**A.** 5.3 nM

**Q.** With B3 as the binder, how does the “Hemolytic Assay IC50, Cyno AP” value read?
**A.** 20.9 nM

**Q.** What about the “Hemolytic Assay IC50, Cyno CP” value of the same binder?
**A.** 102 nM

**Q.** What does the source list for B4?
**A.** Hemolytic Assay IC50, Cyno AP: 7.8 nM; Hemolytic Assay IC50, Cyno CP: 3.4 nM

**Q.** For B5, which “Hemolytic Assay IC50, Cyno AP” value is on record?
**A.** 3.4 nM

**Q.** And the “Hemolytic Assay IC50, Cyno CP” value?
**A.** 1.6 nM

molecular target: T1, human complement component C3; assay: cell-based or functional assay; remark: another data set of the same source

**Q.** Which results are given for B6?
**A.** AP human C3 IC50 (hemolysis): 16 nM; CP human C3 IC50 (hemolysis): 17.8 nM

molecular target: T1, human complement component C3; assay: binding screen of Example 5; method and unit not stated

**Q.** With B2 as the binder, how does the “binding relative to negative control mIgG2” value read?
**A.** 0.7

**Q.** How did the “binding relative to negative control mIgG2” value turn out when B3 was run?
**A.** 0.37

**Q.** For B4, which “binding relative to negative control mIgG2” value is on record?
**A.** 0.66

**Q.** B5 was tested. Which “binding relative to negative control mIgG2” value did it give?
**A.** 0.95

molecular target: C3a (human, UniProt P01024 672-748); assay: as above
Sequence (P01024 672-748 limits assumed): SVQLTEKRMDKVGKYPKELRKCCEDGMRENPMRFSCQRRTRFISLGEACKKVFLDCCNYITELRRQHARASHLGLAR

**Q.** For B2, which “binding relative to negative control mIgG2” value is on record?
**A.** -0.04

**Q.** How did the “binding relative to negative control mIgG2” value turn out when B3 was run?
**A.** -0.01

**Q.** With B4 as the binder, how does the “binding relative to negative control mIgG2” value read?
**A.** 0.11

**Q.** Which “binding relative to negative control mIgG2” value does the source give for B5 here?
**A.** -0.02

molecular target: C3b (human, UniProt P01024 23-667; P01024 749-1663); assay: as above
Sequence (P01024 23-667 limits assumed, chain 1 of 2): as the sequence (P01024 23-667, chain 1 of 2) above
Sequence (P01024 749-1663 limits assumed, chain 2 of 2): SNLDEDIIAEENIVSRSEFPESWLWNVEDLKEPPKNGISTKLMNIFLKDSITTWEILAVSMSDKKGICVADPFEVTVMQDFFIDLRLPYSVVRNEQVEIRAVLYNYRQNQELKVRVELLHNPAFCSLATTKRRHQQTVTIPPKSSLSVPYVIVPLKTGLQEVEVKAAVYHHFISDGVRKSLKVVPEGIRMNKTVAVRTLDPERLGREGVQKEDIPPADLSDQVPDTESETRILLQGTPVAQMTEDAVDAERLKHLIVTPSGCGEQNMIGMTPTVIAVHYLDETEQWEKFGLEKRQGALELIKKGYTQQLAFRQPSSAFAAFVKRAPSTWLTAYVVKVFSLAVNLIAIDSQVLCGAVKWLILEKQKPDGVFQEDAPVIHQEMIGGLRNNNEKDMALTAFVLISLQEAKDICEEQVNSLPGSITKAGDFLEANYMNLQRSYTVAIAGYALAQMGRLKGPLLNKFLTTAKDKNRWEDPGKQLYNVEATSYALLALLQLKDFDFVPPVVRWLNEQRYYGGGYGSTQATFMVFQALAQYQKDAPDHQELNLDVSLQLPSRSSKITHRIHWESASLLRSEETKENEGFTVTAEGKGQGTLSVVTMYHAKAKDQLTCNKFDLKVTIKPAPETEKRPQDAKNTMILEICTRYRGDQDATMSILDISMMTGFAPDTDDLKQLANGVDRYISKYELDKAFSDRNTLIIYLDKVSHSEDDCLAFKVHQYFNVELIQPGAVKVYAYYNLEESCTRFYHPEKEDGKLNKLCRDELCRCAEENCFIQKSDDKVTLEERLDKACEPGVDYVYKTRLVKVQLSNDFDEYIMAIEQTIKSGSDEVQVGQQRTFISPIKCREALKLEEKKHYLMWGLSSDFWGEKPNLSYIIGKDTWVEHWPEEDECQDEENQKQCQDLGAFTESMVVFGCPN

**Q.** For B2, which “binding relative to negative control mIgG2” value is on record?
**A.** 0.61

**Q.** With B3 as the binder, how does the “binding relative to negative control mIgG2” value read?
**A.** 0.33

**Q.** Which “binding relative to negative control mIgG2” value does the source give for B4 here?
**A.** 0.09

**Q.** B5 was tested. Which “binding relative to negative control mIgG2” value did it give?
**A.** 0.83

molecular target: T2, C3d (UniProt P01024 1002-1303, limits assumed); assay: as above
T2 construct: domain: C3d
T2 sequence (P01024 1002-1303 limits assumed): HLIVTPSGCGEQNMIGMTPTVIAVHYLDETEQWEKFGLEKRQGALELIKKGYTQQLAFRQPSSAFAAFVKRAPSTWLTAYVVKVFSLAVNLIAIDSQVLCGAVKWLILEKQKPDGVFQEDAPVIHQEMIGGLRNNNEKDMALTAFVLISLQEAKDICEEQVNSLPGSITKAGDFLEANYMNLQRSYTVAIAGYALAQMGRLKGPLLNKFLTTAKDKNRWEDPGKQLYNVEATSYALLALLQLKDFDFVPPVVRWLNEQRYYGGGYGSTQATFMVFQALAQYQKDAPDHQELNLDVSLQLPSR

**Q.** B2 was tested. Which “binding relative to negative control mIgG2” value did it give?
**A.** 0.01

**Q.** B3 was tested. Which “binding relative to negative control mIgG2” value did it give?
**A.** 0

**Q.** How did the “binding relative to negative control mIgG2” value turn out when B4 was run?
**A.** 0.01

**Q.** B5 was tested. Which “binding relative to negative control mIgG2” value did it give?
**A.** 0.01
